In the Human Domainome abundance scans (Beltran et al. 2025):
± gives the uncertainty stated by the source.

B1: Tesmin, residues 368 to 403; numbered along this chain, Q9Y4I5 (parent)
chain: KGCNCRRSGCLKNYCECYEAQIMCSSICKCIGCKNY

Variants of: B1
Experiment: abundance fitness (aPCA) (normalised: wild type 0, dead -1); higher = more abundant; growth selection in yeast, the domain comes from the species named
Details: Homo sapiens

Abundance fitness of substitutions, site by site:
R6: D 0.156 ± 0.14; W 0.012 ± 0.081; V 0.12 ± 0.073; G 0.151 ± 0.073; A 0.33 ± 0.071; N -0.361 ± 0.35; C 0.036 ± 0.092; L 0.204 ± 0.085; F -0.169 ± 0.19; K 0.146 ± 0.1; T 0.239 ± 0.085; E 0.214 ± 0.1; Q 0.338 ± 0.1; S 0.303 ± 0.087
A20: L -0.199 ± 0.083; V -0.202 ± 0.11; K -0.337 ± 0.22; P -0.292 ± 0.2; Q -0.095 ± 0.12; C -0.442 ± 0.18; S -0.049 ± 0.096; E -0.082 ± 0.11; Y -0.367 ± 0.22; R -0.038 ± 0.083; G 0.065 ± 0.074; M -0.317 ± 0.1; W -0.295 ± 0.1; I -0.696 ± 0.13; T -0.196 ± 0.14
G9: E 0.006 ± 0.085; D 0.111 ± 0.09; L -0.629 ± 0.13; V -0.334 ± 0.077; Q -0.342 ± 0.14; W -1.51 ± 0.12; P -0.213 ± 0.092; N -0.248 ± 0.25; S -0.795 ± 0.08; A -0.339 ± 0.074; T -0.22 ± 0.092; M -0.269 ± 0.1
K1: D -0.995 ± 0.17; C -0.775 ± 0.34; V -0.825 ± 0.28; G -0.573 ± 0.2; E -0.136 ± 0.086; S -0.401 ± 0.22; L -0.211 ± 0.21
M23: A -0.18 ± 0.079
I22: F -0.088 ± 0.24; Q 0.329 ± 0.22; E 0.004 ± 0.13; S -0.066 ± 0.096; P -0.043 ± 0.11; M -0.423 ± 0.18; K -0.093 ± 0.14; V 0.048 ± 0.093; L -0.073 ± 0.11; A 0.004 ± 0.097; W -0.365 ± 0.097; N 0.551 ± 0.33; R 0.021 ± 0.073; T 0.109 ± 0.13; G 0.268 ± 0.073; C -0.55 ± 0.13
K12: E 0.031 ± 0.1; G -0.079 ± 0.073; W -0.643 ± 0.1; Q -0.076 ± 0.13; S -0.181 ± 0.09; T -0.201 ± 0.12; H -0.217 ± 0.2; A -0.05 ± 0.085; P -0.077 ± 0.078; V -0.014 ± 0.086; N -0.46 ± 0.24; M -0.323 ± 0.11; F -0.01 ± 0.28; L -0.316 ± 0.079; Y -0.831 ± 0.26; I -0.405 ± 0.27; C -0.622 ± 0.11; R -0.359 ± 0.072
Q21: H -0.271 ± 0.48; A -0.127 ± 0.092; C -0.235 ± 0.33; P -0.073 ± 0.11; D -0.566 ± 0.17; W -0.508 ± 0.11; T -0.08 ± 0.16; N -0.124 ± 0.1; R 0.061 ± 0.073; L -0.26 ± 0.085; V -0.472 ± 0.095; K -0.065 ± 0.13; G -0.004 ± 0.078; M -0.48 ± 0.14; E 0.155 ± 0.11
L11: C -0.567 ± 0.087; I -0.369 ± 0.17; G -0.064 ± 0.067; D -0.428 ± 0.12; N -0.243 ± 0.45; Q 0.087 ± 0.092; T -0.079 ± 0.092; P -0.116 ± 0.086; S -0.134 ± 0.073; R -0.344 ± 0.07; Y -0.656 ± 0.49; A 0.075 ± 0.071; M 0.038 ± 0.13; W -0.388 ± 0.074; E 0.05 ± 0.094; H 0.297 ± 0.17; K -0.025 ± 0.12
G2: T -0.439 ± 0.2; L -0.465 ± 0.18; R -0.447 ± 0.084; S -0.194 ± 0.082; C -0.448 ± 0.35; M -0.189 ± 0.29; K -0.565 ± 0.13; V -0.209 ± 0.11; W -0.674 ± 0.14; Q -0.17 ± 0.11; E 0.017 ± 0.096; P 0.07 ± 0.31; A -0.133 ± 0.1
E16: M -0.218 ± 0.1; P -0.327 ± 0.089; D -0.522 ± 0.28; S -0.57 ± 0.1; R -0.341 ± 0.074; V -0.329 ± 0.075; Q -0.034 ± 0.082; H -0.418 ± 0.43; A -0.256 ± 0.078; Y -0.577 ± 0.14; C -0.677 ± 0.12; T -0.39 ± 0.15; K -0.502 ± 0.13; N -0.763 ± 0.1; F -0.453 ± 0.38; L -0.441 ± 0.11; G -0.086 ± 0.075; W -0.466 ± 0.11
C17: V -0.415 ± 0.079; M -0.575 ± 0.12; E -0.465 ± 0.12; R -0.444 ± 0.08; L -0.288 ± 0.096; P -0.312 ± 0.082; T -0.689 ± 0.13; A -0.36 ± 0.079; K -0.337 ± 0.12; Q -0.205 ± 0.11; Y -0.72 ± 0.17
C10: D -0.105 ± 0.098; I -1.37 ± 0.47; L -0.414 ± 0.098; K -0.323 ± 0.096; E 0.004 ± 0.076; V -0.322 ± 0.075; P -0.633 ± 0.15; R -0.539 ± 0.071; W -0.418 ± 0.077; Y -0.439 ± 0.12
